Experimental data as given in US20020197617, “Aptamers as reagents for high throughput screening” (GILEAD SCIENCES, INC., published 2002).

B1: 11.20 (ssRNA)
RNA: GGGAAAAGCGAAUCAUACACAAGAUUGGUCGUACUGGACAGAGCCGUGGUAGAGGGAUUGGGACAAAGUGUCAGCUCCGCCAGAGACCAACCGAGAA
modifications: 2'-NH2 pyrimidines

Experiments:
[1] = target: PDGF-BB (platelet-derived growth factor BB) (Homo sapiens, UniProt P01127 P01127:82-190); assay: 33-mer described previously (US 5,723,594); measurement conditions not stated; details: tags: R&D Systems, carrier free lyophilized; chain copies: 2 (inferred, homodimer)
[2] = target: T1, Wheat germ agglutinin (WGA) (Triticum vulgare, UniProt P10968 P10968:27-197); assay: filter; 10 nM aptamer and 10 nM WGA, HBSMC pH 7.4, room temperature; displaced by (GlcNAc)2, (GlcNAc)3 and (GlcNAc)4, not by GlcNAc; details: tags: EY Laboratories; chain copies: 2; label: 5'-32P
T1 sequence: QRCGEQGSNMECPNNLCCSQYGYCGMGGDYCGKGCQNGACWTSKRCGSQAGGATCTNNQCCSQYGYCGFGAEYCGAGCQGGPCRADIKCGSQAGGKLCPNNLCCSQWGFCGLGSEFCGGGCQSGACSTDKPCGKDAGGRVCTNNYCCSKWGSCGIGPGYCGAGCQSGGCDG
Description: Small molecule oligosaccharides were screened for their ability to compete with WGA aptamer 11.20 for binding to wheat germ agglutinin protein. The small molecule (or cold 11.20) competitors at varying concentrations were mixed with the 5′-32P end-labeled 11.20 ligand at room temperature. Then WGA was added to the mixture and allowed to equilibrate for 60 minutes at room temperature. The competition mixtures (90 μL volume) all had 32P end-labeled 11.20 at 10 nM, WGA at 10 nM and were in 25 mM Hepes, 137 mM NaCl, 2.7 mM KCl, 1 mM MgCl₂, 1 mM CaCl₂, 0.067% human serum albumin (HSA), at pH 7.4 (HBSMC). Aptamer bound to WGA was separated from free aptamer by filtration through pre-washed […] nitrocellulose membrane filters. Filters were washed with 5 mL HBSMC at room temperature. The filters were placed in tubes with scintillant and the radioactivity counted to quantitate the fraction of 32P end-labeled 11.20 bound at each competitor concentration.

Chain of PDGF-BB (platelet-derived growth factor BB) (P01127 82-190, one chain of several): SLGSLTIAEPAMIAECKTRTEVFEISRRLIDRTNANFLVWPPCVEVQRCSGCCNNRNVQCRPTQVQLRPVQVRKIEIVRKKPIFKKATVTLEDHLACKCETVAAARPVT

Binder	Kd [1]	binding result [2]
CGGGCGCGTTCTTCGTGGTTACTTTTAGTCCCG (ssDNA) [20ta]	0.05 nM	
B1		binds
